Measured values: patent publication US20170101454A1 (Novo Nordisk, published 2017)
Starred links: 1 amine or outer side, 2 acyl side, 3 side chain; linkers in the order of their positions; H or OH if unused. Non-standard residues stand in square brackets, D forms with d. Groups on a side chain read outwards from the residue. No end group written: not given here. *: point of attachment. C18 diacid = O=C(O)CCCCCCCCCCCCCCCCC(=O)*; γGlu = O=C(O)[C@H](CCC(=O)[*:2])N[*:1]; AEEA = NCCOCCOCC(=O)O; Aib = CC(C)(N)C(=O)O

B1: N^ε28-[2-[2-[2-[[2-[2-[2-[[(4S)-4-carboxy-4-[[(4S)-4-carboxy-4-[[(4S)-4-carboxy-4-(17-carboxyheptadecanoylamino)butanoyl]amino]butanoyl]amino]butanoyl]amino]eth … (peptide)
peptide: H[Aib]QGTFTSDVSKYLESRRAQDFVQWLIK([AEEA-AEEA-γGlu-γGlu-γGlu-C18 diacid])T-NH2
modifications: N-terminus assumed
SMILES: CC[C@H](C)[C@H](NC(=O)[C@H](CC(C)C)NC(=O)[C@H](Cc1c[nH]c2ccccc12)NC(=O)[C@H](CCC(N)=O)NC(=O)[C@@H](NC(=O)[C@H](Cc1ccccc1)NC(=O)[C@H](CC(=O)O)NC(=O)[C@H](CCC(N)=O)NC(=O)[C@H](C)NC(=O)[C@H](CCCNC(=N)N)NC(=O)[C@H](CCCNC(=N)N)NC(=O)[C@H](CO)NC(=O)[C@H](CCC(=O)O)NC(=O)[C@H](CC(C)C)NC(=O)[C@H](Cc1ccc(O)cc1)NC(=O)[C@H](CCCCN)NC(=O)[C@H](CO)NC(=O)[C@@H](NC(=O)[C@H](CC(=O)O)NC(=O)[C@H](CO)NC(=O)[C@@H](NC(=O)[C@H](Cc1ccccc1)NC(=O)[C@@H](NC(=O)CNC(=O)[C@H](CCC(N)=O)NC(=O)C(C)(C)NC(=O)[C@@H](N)Cc1c[nH]cn1)[C@@H](C)O)[C@@H](C)O)C(C)C)C(C)C)C(=O)N[C@@H](CCCCNC(=O)COCCOCCNC(=O)COCCOCCNC(=O)CC[C@H](NC(=O)CC[C@H](NC(=O)CC[C@H](NC(=O)CCCCCCCCCCCCCCCCC(=O)O)C(=O)O)C(=O)O)C(=O)O)C(=O)N[C@H](C(N)=O)[C@@H](C)O
notes: also called Chem. 10; Chem 10
B2: N^ε28-[2-[2-[2-[[2-[2-[2-[[(4S)-4-carboxy-4-[[(4S)-4-carboxy-4-[[(4S)-4-carboxy-4-(17-carboxyheptadecanoylamino)butanoyl]amino]butanoyl]amino]butanoyl]amino]eth … (peptide)
peptide: H[Aib]QGTFTSDLSKYLDLRRAQDFVQWLIK([AEEA-AEEA-γGlu-γGlu-γGlu-C18 diacid])T-NH2
modifications: N-terminus assumed
SMILES: CC[C@H](C)[C@H](NC(=O)[C@H](CC(C)C)NC(=O)[C@H](Cc1c[nH]c2ccccc12)NC(=O)[C@H](CCC(N)=O)NC(=O)[C@@H](NC(=O)[C@H](Cc1ccccc1)NC(=O)[C@H](CC(=O)O)NC(=O)[C@H](CCC(N)=O)NC(=O)[C@H](C)NC(=O)[C@H](CCCNC(=N)N)NC(=O)[C@H](CCCNC(=N)N)NC(=O)[C@H](CC(C)C)NC(=O)[C@H](CC(=O)O)NC(=O)[C@H](CC(C)C)NC(=O)[C@H](Cc1ccc(O)cc1)NC(=O)[C@H](CCCCN)NC(=O)[C@H](CO)NC(=O)[C@H](CC(C)C)NC(=O)[C@H](CC(=O)O)NC(=O)[C@H](CO)NC(=O)[C@@H](NC(=O)[C@H](Cc1ccccc1)NC(=O)[C@@H](NC(=O)CNC(=O)[C@H](CCC(N)=O)NC(=O)C(C)(C)NC(=O)[C@@H](N)Cc1c[nH]cn1)[C@@H](C)O)[C@@H](C)O)C(C)C)C(=O)N[C@@H](CCCCNC(=O)COCCOCCNC(=O)COCCOCCNC(=O)CC[C@H](NC(=O)CC[C@H](NC(=O)CC[C@H](NC(=O)CCCCCCCCCCCCCCCCC(=O)O)C(=O)O)C(=O)O)C(=O)O)C(=O)N[C@H](C(N)=O)[C@@H](C)O
notes: also called Chem. 9; Chem 9
B3: N^ε28-[2-[2-[2-[[2-[2-[2-[[(4S)-4-carboxy-4-[[(4S)-4-carboxy-4-[[(4S)-4-carboxy-4-(17-carboxyheptadecanoylamino)butanoyl]amino]butanoyl]amino]butanoyl]amino]eth … (peptide)
peptide: H[Aib]QGTFTSDLSKYLDARRAREFVQWLIK([AEEA-AEEA-γGlu-γGlu-γGlu-C18 diacid])T-NH2
modifications: N-terminus assumed
SMILES: CC[C@H](C)[C@H](NC(=O)[C@H](CC(C)C)NC(=O)[C@H](Cc1c[nH]c2ccccc12)NC(=O)[C@H](CCC(N)=O)NC(=O)[C@@H](NC(=O)[C@H](Cc1ccccc1)NC(=O)[C@H](CCC(=O)O)NC(=O)[C@H](CCCNC(=N)N)NC(=O)[C@H](C)NC(=O)[C@H](CCCNC(=N)N)NC(=O)[C@H](CCCNC(=N)N)NC(=O)[C@H](C)NC(=O)[C@H](CC(=O)O)NC(=O)[C@H](CC(C)C)NC(=O)[C@H](Cc1ccc(O)cc1)NC(=O)[C@H](CCCCN)NC(=O)[C@H](CO)NC(=O)[C@H](CC(C)C)NC(=O)[C@H](CC(=O)O)NC(=O)[C@H](CO)NC(=O)[C@@H](NC(=O)[C@H](Cc1ccccc1)NC(=O)[C@@H](NC(=O)CNC(=O)[C@H](CCC(N)=O)NC(=O)C(C)(C)NC(=O)[C@@H](N)Cc1c[nH]cn1)[C@@H](C)O)[C@@H](C)O)C(C)C)C(=O)N[C@@H](CCCCNC(=O)COCCOCCNC(=O)COCCOCCNC(=O)CC[C@H](NC(=O)CC[C@H](NC(=O)CC[C@H](NC(=O)CCCCCCCCCCCCCCCCC(=O)O)C(=O)O)C(=O)O)C(=O)O)C(=O)N[C@H](C(N)=O)[C@@H](C)O
notes: also called Chem. 6; Chem 6
B4: N^ε28-[2-[2-[2-[[2-[2-[2-[[(4S)-4-carboxy-4-[[(4S)-4-carboxy-4-[[(4S)-4-carboxy-4-(17-carboxyheptadecanoylamino)butanoyl]amino]butanoyl]amino]butanoyl]amino]eth … (peptide)
peptide: H[Aib]QGTFTSDLSKYLDARRAQDFVQWLIK([AEEA-AEEA-γGlu-γGlu-γGlu-C18 diacid])T-NH2
modifications: N-terminus assumed
SMILES: CC[C@H](C)[C@H](NC(=O)[C@H](CC(C)C)NC(=O)[C@H](Cc1c[nH]c2ccccc12)NC(=O)[C@H](CCC(N)=O)NC(=O)[C@@H](NC(=O)[C@H](Cc1ccccc1)NC(=O)[C@H](CC(=O)O)NC(=O)[C@H](CCC(N)=O)NC(=O)[C@H](C)NC(=O)[C@H](CCCNC(=N)N)NC(=O)[C@H](CCCNC(=N)N)NC(=O)[C@H](C)NC(=O)[C@H](CC(=O)O)NC(=O)[C@H](CC(C)C)NC(=O)[C@H](Cc1ccc(O)cc1)NC(=O)[C@H](CCCCN)NC(=O)[C@H](CO)NC(=O)[C@H](CC(C)C)NC(=O)[C@H](CC(=O)O)NC(=O)[C@H](CO)NC(=O)[C@@H](NC(=O)[C@H](Cc1ccccc1)NC(=O)[C@@H](NC(=O)CNC(=O)[C@H](CCC(N)=O)NC(=O)C(C)(C)NC(=O)[C@@H](N)Cc1c[nH]cn1)[C@@H](C)O)[C@@H](C)O)C(C)C)C(=O)N[C@@H](CCCCNC(=O)COCCOCCNC(=O)COCCOCCNC(=O)CC[C@H](NC(=O)CC[C@H](NC(=O)CC[C@H](NC(=O)CCCCCCCCCCCCCCCCC(=O)O)C(=O)O)C(=O)O)C(=O)O)C(=O)N[C@H](C(N)=O)[C@@H](C)O
notes: also called Chem. 7; Chem 7
B5: N^ε28-[2-[2-[2-[[2-[2-[2-[[(4S)-4-carboxy-4-[[(4S)-4-carboxy-4-[[(4S)-4-carboxy-4-(17-carboxyheptadecanoylamino)butanoyl]amino]butanoyl]amino]butanoyl]amino]eth … (peptide)
peptide: H[Aib]QGTFTSDLSKYLESRRAQDFVQWLIK([AEEA-AEEA-γGlu-γGlu-γGlu-C18 diacid])T-NH2
modifications: N-terminus assumed
SMILES: CC[C@H](C)[C@H](NC(=O)[C@H](CC(C)C)NC(=O)[C@H](Cc1c[nH]c2ccccc12)NC(=O)[C@H](CCC(N)=O)NC(=O)[C@@H](NC(=O)[C@H](Cc1ccccc1)NC(=O)[C@H](CC(=O)O)NC(=O)[C@H](CCC(N)=O)NC(=O)[C@H](C)NC(=O)[C@H](CCCNC(=N)N)NC(=O)[C@H](CCCNC(=N)N)NC(=O)[C@H](CO)NC(=O)[C@H](CCC(=O)O)NC(=O)[C@H](CC(C)C)NC(=O)[C@H](Cc1ccc(O)cc1)NC(=O)[C@H](CCCCN)NC(=O)[C@H](CO)NC(=O)[C@H](CC(C)C)NC(=O)[C@H](CC(=O)O)NC(=O)[C@H](CO)NC(=O)[C@@H](NC(=O)[C@H](Cc1ccccc1)NC(=O)[C@@H](NC(=O)CNC(=O)[C@H](CCC(N)=O)NC(=O)C(C)(C)NC(=O)[C@@H](N)Cc1c[nH]cn1)[C@@H](C)O)[C@@H](C)O)C(C)C)C(=O)N[C@@H](CCCCNC(=O)COCCOCCNC(=O)COCCOCCNC(=O)CC[C@H](NC(=O)CC[C@H](NC(=O)CC[C@H](NC(=O)CCCCCCCCCCCCCCCCC(=O)O)C(=O)O)C(=O)O)C(=O)O)C(=O)N[C@H](C(N)=O)[C@@H](C)O
notes: also called Chem. 8; Chem 8

Assays:
[1] = molecular target: T1, human GLP-1 receptor (human, UniProt P43220 24-463); test: cell-based or functional assay
[2] = molecular target: T2, human glucagon receptor (human, UniProt P47871 26-477); test: cell-based or functional assay
[3] = molecular target: T1, human GLP-1 receptor; test: displacement of [125I]-GLP-1-(7-36)NH2 from BHK membranes with human GLP-1R, SPA, no serum albumin
[4] = molecular target: T2, human glucagon receptor; test: displacement of [125I]-glucagon from BHK membranes with human glucagon receptor, SPA, no serum albumin

T2 sequence (P47871 26-477): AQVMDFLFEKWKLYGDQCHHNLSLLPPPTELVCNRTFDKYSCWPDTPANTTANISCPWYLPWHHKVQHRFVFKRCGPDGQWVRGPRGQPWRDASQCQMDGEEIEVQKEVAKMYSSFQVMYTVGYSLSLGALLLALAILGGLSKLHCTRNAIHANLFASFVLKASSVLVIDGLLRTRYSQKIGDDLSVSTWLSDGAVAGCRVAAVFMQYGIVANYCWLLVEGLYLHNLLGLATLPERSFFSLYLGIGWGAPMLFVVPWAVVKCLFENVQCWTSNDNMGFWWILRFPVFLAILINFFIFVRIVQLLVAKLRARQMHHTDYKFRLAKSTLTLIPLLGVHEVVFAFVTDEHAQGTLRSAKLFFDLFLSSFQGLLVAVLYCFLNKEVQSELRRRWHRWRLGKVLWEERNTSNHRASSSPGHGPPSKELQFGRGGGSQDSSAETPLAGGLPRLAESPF

Row | Binder | GLP-1R EC50 (pM) [Assay (I)(a)], CRE luciferase reporter, BHK cells [1] [pM] | GlucagonR EC50 (pM), [Assay (I)(b)], CRE luciferase reporter, BHK cells [2] [pM] | IC50 [3] [nM] | IC50 [4] [nM]
1 | B1 | 3 | 748 | 0.1 | 42.4
2 | B2 | 10 | 44 | 0.5 | 17.3
3 | B3 | 5 | 14 | 0.1 | 3.7
4 | B4 | 2 | 32 | 0.3 | 6
5 | B5 | 7 | 517 | 0.1 | 27.6
